Measured values taken from WO2024019110A1 (dated 2024).

B1: recombinant Fab protein of antibody No. 5 (Fab, V domains shown)
VH: EVQLVESGGGLVQPGGSLRLSCAASGFTFYSYWMTWVRQAPGKGLEWVANIKHDESESHYVDSVRGRFTISRDNAKNSVYLQMKGLRAEDTAVYYCARDGGYNILTAYYHAPSYWGQGTLVTVSS
VL: QSALTQPASVSGSPGQSITISCTGTSSDVGGYNFVSWYRQYPGKAPQLMIYDVSRRPSGDSDRFSGSKSGNTASLTISGLQAEDEAEYHCSSYTGRSPYVVFGGGTKVTVL
B2: recombinant Fab protein of antibody No. 7 (Fab, V domains shown)
VH: EVQLLESGGGLVQPGGSLRLSCAASGFTFSRYALSWVRQAPGKGLEWVSAISGAAITTYYADSVKGRFTISRDDSRNTLFMQMDSLRAEDTAVYYCAKGDYYDSSGYLAEYFPHWGQGTLVTVSS
VL: SYELTQPPSVSVSPGQTARITCFADALPKQHAYWYQQKAGQAPVLVIFKDTERPSGIPKRFSGSRSGATVTLTISGVQAEDEADYYCQSTDISGVLFGGGTKLTVL
B3: recombinant Fab protein of antibody No. 6 (Fab, V domains shown)
VH: QVQLVQSGPEVKKPGTSVKVSCKASGFTFYYSAVQWVRQARGQRLEWLGWMAVGSGKANYAQKFQERLTLTRDMSTSTAYMELSSLRSEDTAVYYCAAPNCTGGSCYDGFNLWGQGTVVTVSS
VL: EIVLTQSPGTLSLSPGDRAILSCRASQTVNSNYLAWYQQKPGQAPRLLIYGTSSRATGIPDRFSGSGSGTDFTLTISRLEPEDFAVYYCQQYGSSPWLFGQGTKVEIK
B4: recombinant Fab protein of antibody No. 2 (Fab, V domains shown)
VH: EVQLVESGGGVVQPGRSLRLSCAASGFKFSKFAMHWVRQAPGKGPEWVAVISYDGNQYHSADSVKGRFTISRDNSFNTLYLQMNSLGPEDTAVYYCARDGPDTSGYYANIYFDFWGQGTLVTVSS
VL: QSVLTQPPSVSGAPGQRVTISCTGSSSNIGAGYDVHWYQQLPGRAPKLLIFDNNNRPSGVPDRFSGSKSGTSASLAITGLQTEDEAYYYCQSYDNSLILAVFGGGTKVTVL

Target: Wuhan strain RBD (Ancestral), biotinylated (SARS-CoV-2 (Wuhan strain), UniProt P0DTC2 331-529)
Assay: BLI (Octet), biotinylated RBD on streptavidin biosensor, Fab in solution

Row | Binder | Kd [nM]
1 | B1 | ≤ 100
2 | B2 | ≤ 100
3 | B3 | ≤ 100
4 | B4 | ≤ 100
